From article PMC3406945, “A smallest 6 kda metalloprotease, mini-matrilysin, in living world: a revolutionary conserved zinc-dependent proteolytic domain- helix-loop-helix catalytic zinc binding domain (ZBD)” (Journal of Biomedical Science, 2012)
Several values for one entry are separate records, joined by “and”; a condition that tells them apart may be missing. Equal values may be shown once.

Target: the molecule itself
Assay: CM-transferrin zymography; purified and refolded 6 kDa ZBD (heparin and Triton X-100 present) in sample buffer without dithiothreitol at room temperature, run on a 12.5% SDS-PAGE gel with 0.3 mg/ml CM-transferrin embedded; oligomer size read from the active bands

B1: recombinant rat matrilysin zinc-binding domain (ZBD) (domain or fragment, UniProt P50280 212-267, looked up)
chain: LFVATHELGHSLGLGHSSVPSSVMYPTYQGDHSEDFSLTKDDIAGIQKLYGKRNKL
notes: 212-267, said to correspond to human a.a; 188-247; called a 60-residue fragment; Cloned into the Nde1 and BamH1 sites of PET3a; also called 6 kDa ZBD; 6 kDa MMP-7 ZBD
- stoichiometry N: 6 and 8 and 5
